# Results: patent US20160340442A1
# Columns and labels:
# [1] = target: MUC1 (human) (UniProt P15941); assay: flow cytometry, K562/Con siRNA cells (MUC1-positive)
# [2] = target: MUC1 (human) (UniProt P15941); assay: flow cytometry, U266/Con siRNA cells (MUC1-positive)
# [3] = target: MUC1 (human) (UniProt P15941); assay: flow cytometry, KU812/Con siRNA cells (MUC1-Positive)
# [4] = target: MUC1 (human) (UniProt P15941); assay: surface staining, flow cytometry, K562 cells; 2 µg antibody/sample
# [5] = target: MUC1 (human) (UniProt P15941); assay: surface staining, flow cytometry, U266 cells; 2 µg antibody/sample
# [6] = target: MUC1 (human) (UniProt P15941); assay: surface staining, flow cytometry, KU812 cells; 2 µg antibody/sample
# [7] = target: MUC1 (human) (UniProt P15941); assay: surface staining, flow cytometry, MV4-11 cells; 2 µg antibody/sample
# [8] = target: MUC1 (human) (UniProt P15941); assay: surface staining, flow cytometry, KMS28PE cells; 2 µg antibody/sample
# [9] = target: MUC1 (human) (UniProt P15941); assay: surface staining, flow cytometry, ZR-75-1 cells; 2 µg antibody/sample
# [10] = target: MUC1 (human) (UniProt P15941); assay: surface staining, flow cytometry, ME559203 cells; 2 µg antibody/sample
# [11] = target: MUC1 (human) (UniProt P15941); assay: surface staining, flow cytometry, RPMI8266 cells; 2 µg antibody/sample
# [12] = target: MUC1 (human) (UniProt P15941); assay: surface staining, flow cytometry, K562 CML cells; 2 µg antibody/sample
# [13] = target: MUC1 (human) (UniProt P15941); assay: surface staining, flow cytometry, KU812 CML cells; 2 µg antibody/sample
# [14] = target: MUC1 (human) (UniProt P15941); assay: flow cytometry, K562/MUC1siRNA cells (MUC1 silenced, labelled MUC1-negative)
# [15] = target: MUC1 (human) (UniProt P15941); assay: flow cytometry, U266/MUC1siRNA cells (MUC1 silenced, labelled MUC1-negative)
# [16] = target: MUC1 (human) (UniProt P15941); assay: surface staining, flow cytometry, U266 CTL-siRNA cells; 2 µg antibody/sample
# [17] = target: MUC1 (human) (UniProt P15941); assay: flow cytometry, KU812/MUC1siRNA cells (MUC1 silenced, labelled MUC1-negative)
# [18] = target: MUC1 (human) (UniProt P15941); assay: surface staining, flow cytometry, KU812 CTL-siRNA cells; 2 µg antibody/sample
# [19] = target: MUC1 (human) (UniProt P15941); assay: surface staining, flow cytometry, ZR-75-1 cells (third row); 2 µg antibody/sample
# [20] = target: MUC1 (human) (UniProt P15941); assay: surface staining, flow cytometry, ZR-75-1 cells (second row); 2 µg antibody/sample
# [21] = target: MUC1 (human) (UniProt P15941); assay: surface staining, flow cytometry, U266 CTL-siRNA cells (second block); 2 µg antibody/sample
# [22] = target: MUC1 (human) (UniProt P15941); assay: surface staining, flow cytometry, KU812 CTL-siRNA cells (second block); 2 µg antibody/sample
# [23] = target: MUC1 (human) (UniProt P15941); assay: surface staining, flow cytometry, K562 MUC1-siRNA cells (MUC1 silenced); 2 µg antibody/sample
# [24] = target: MUC1 (human) (UniProt P15941); assay: surface staining, flow cytometry, U266 MUC1-siRNA cells (MUC1 silenced); 2 µg antibody/sample
# [25] = target: MUC1 (human) (UniProt P15941); assay: surface staining, flow cytometry, KU812 MUC1-siRNA cells (MUC1 silenced); 2 µg antibody/sample
# [26] = target: MUC1 (human) (UniProt P15941); assay: surface staining, flow cytometry, primary breast cancer patient cells JB564765; 2 µg antibody/sample
# [27] = target: MUC1 (human) (UniProt P15941); assay: surface staining, flow cytometry, primary breast cancer patient cells RG563999; 2 µg antibody/sample
# [28] = target: MUC1 (human) (UniProt P15941); assay: surface staining, flow cytometry, U266 MUC1-siRNA cells (MUC1 silenced, second block); 2 µg antibody/sample
# [29] = target: MUC1 (human) (UniProt P15941); assay: surface staining, flow cytometry, KU812 MUC1-siRNA cells (MUC1 silenced, second block); 2 µg antibody/sample
# [30] = target: MUC1 (human) (UniProt P15941); assay: surface staining, flow cytometry, MOLM-14 cells; 2 µg antibody/sample, PE-conjugated goat anti-mouse 2nd antibody
# [31] = target: MUC1 (human) (UniProt P15941); assay: surface staining, flow cytometry, primary breast cancer patient cells RG563999 (second row); 2 µg antibody/sample
# [32] = target: MUC1 (human) (UniProt P15941); assay: surface staining, flow cytometry, K562 CTL-siRNA cells; 2 µg antibody/sample; fixed samples kept at 4° C. for 4 days
# MUC1 (human), sequence (P15941 24-1255): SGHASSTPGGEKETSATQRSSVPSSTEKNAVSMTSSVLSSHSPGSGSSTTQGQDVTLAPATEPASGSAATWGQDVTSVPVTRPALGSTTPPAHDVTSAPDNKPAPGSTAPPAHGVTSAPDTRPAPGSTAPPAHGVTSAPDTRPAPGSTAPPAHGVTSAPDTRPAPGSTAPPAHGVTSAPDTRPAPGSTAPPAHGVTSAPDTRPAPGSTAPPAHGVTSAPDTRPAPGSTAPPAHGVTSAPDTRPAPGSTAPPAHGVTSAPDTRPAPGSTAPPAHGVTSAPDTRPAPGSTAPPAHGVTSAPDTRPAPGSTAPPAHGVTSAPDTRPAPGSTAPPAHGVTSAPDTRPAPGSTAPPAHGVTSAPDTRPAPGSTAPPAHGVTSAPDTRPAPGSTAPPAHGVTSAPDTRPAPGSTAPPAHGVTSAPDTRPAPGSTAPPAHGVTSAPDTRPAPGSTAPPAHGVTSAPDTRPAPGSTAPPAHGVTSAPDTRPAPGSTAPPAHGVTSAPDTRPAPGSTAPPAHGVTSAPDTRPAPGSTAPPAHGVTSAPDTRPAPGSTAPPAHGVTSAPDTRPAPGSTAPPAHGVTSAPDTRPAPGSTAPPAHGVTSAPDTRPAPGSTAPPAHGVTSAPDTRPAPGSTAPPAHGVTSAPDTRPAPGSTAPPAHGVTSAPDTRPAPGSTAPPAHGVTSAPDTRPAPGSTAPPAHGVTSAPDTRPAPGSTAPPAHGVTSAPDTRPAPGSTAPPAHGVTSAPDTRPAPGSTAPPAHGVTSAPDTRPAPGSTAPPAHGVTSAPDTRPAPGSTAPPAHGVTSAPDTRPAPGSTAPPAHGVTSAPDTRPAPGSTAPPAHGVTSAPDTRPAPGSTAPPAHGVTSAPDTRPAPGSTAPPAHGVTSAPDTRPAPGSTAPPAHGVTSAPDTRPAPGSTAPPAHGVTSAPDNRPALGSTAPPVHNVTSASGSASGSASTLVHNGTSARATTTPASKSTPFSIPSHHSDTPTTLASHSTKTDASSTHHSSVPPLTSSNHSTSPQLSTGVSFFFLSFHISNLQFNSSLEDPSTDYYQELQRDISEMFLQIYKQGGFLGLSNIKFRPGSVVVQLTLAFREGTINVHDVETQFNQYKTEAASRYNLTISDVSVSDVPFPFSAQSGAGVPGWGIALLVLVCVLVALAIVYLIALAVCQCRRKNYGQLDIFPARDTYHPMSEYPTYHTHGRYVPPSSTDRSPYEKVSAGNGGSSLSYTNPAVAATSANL
substance,measurement,setting,value
DF3 (antibody),flow cytometry value (unit not given),[1],40.6
same,flow cytometry value (unit not given),[2],94.7
same,flow cytometry value (unit not given),[3],95.2
same,flow cytometry value (unit not given),[4],78.8
same,flow cytometry value (unit not given),[5],99.2
same,flow cytometry value (unit not given),[6],98.1
same,flow cytometry value (unit not given),[7],74.2
same,flow cytometry value (unit not given),[8],58.2
same,flow cytometry value (unit not given),[9],98.5
same,flow cytometry value (unit not given),[10],57
same,flow cytometry value (unit not given),[11],95
same,flow cytometry value (unit not given),[12],77.9
same,flow cytometry value (unit not given),[13],90.5
same,flow cytometry value (unit not given),[14],17.1
same,flow cytometry value (unit not given),[15],13.5
same,flow cytometry value (unit not given),[16],94.7
same,flow cytometry value (unit not given),[17],35.4
same,flow cytometry value (unit not given),[18],96.6
same,flow cytometry value (unit not given),[19],89.5
same,flow cytometry value (unit not given),[20],6.84
same,flow cytometry value (unit not given),[21],96.5
same,flow cytometry value (unit not given),[22],95.2
same,flow cytometry value (unit not given),[23],17.1
same,flow cytometry value (unit not given),[24],16.2
same,flow cytometry value (unit not given),[25],69.2
same,flow cytometry value (unit not given),[26],21.1
same,flow cytometry value (unit not given),[27],60.5
same,flow cytometry value (unit not given),[28],13.5
same,flow cytometry value (unit not given),[29],85.4
same,flow cytometry value (unit not given),[30],99.5
same,flow cytometry value (unit not given),[31],11.9
same,flow cytometry value (unit not given),[32],40.6
